Target: T1, human OX40 ligand (human, UniProt P23510 51-183, limits assumed)
T1 construct: also called hOX40L; the target
T1 sequence (looked up): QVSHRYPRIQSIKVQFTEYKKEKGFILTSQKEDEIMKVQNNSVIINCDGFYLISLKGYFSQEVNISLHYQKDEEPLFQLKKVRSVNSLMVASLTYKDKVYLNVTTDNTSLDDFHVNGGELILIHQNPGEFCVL
Experiment: PK ELISA of KY1005 in human serum on coated human OX40 ligand

B1: KY1005 (antibody, human IgG4 S228P, kappa, V domains shown)
VH: EVQLVESGGGLVQPGGSLRLSCAASGFTFSNYAMNWVRQAPGKGLEWVSTISGSGGATRYADSVKGRFTISRDNSRNTVYLQMNSLRVEDTAVFYCTKDRLIMATVRGPYYYGMDVWGQGTTVTVSS
VL: DIQMTQSPSSLSASVGDRVTITCRASQSISSYLNWYQQKPGKAPNLLIYAASSLQSGVPSRFSGSGSETDFTLTISSLQPEDFATYYCQQSHSVSFTFGPGTKVDIKR
notes: also called 2D10; 02D10
Question: Does B1 bind?
Answer: binds

— US20230235069A1 (KYMAB, published 2023)
